Measured values: publication PMC4164936, “The translation elongation factor eEF1A1 couples transcription to translation during heat shock response”

T1: eEF1A1 (Homo sapiens (HeLa S-100)) (UniProt P68104)
T1 sequence: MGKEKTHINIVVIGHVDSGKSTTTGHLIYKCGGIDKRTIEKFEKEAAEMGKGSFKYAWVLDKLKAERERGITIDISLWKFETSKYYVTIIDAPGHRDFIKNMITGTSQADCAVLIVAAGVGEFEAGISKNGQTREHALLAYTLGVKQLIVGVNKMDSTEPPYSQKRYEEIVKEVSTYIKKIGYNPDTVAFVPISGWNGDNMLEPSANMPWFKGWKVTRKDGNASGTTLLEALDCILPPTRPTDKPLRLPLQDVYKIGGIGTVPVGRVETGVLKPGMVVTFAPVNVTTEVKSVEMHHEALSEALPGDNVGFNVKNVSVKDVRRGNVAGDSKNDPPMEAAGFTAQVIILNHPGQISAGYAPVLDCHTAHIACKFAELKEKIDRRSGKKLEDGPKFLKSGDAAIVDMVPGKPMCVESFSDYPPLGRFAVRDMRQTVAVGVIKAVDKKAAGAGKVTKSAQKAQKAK

B1: HSPA1A -141/-91 promoter (dsDNA)
DNA 1: GGAAGGCTGGGGGGCAGGACGGGAGGCGAAAACCCTGGAATATTCCCGACC
DNA 2: GGTCGGGAATATTCCAGGGTTTTCGCCTCCCGTCCTGCCCCCCAGCCTTCC

What was measured:
[1] = molecular target: T1, eEF1A1 (Homo sapiens (HeLa S-100)); assay: EMSA; settings: RNA EMSA: purified eEF1A1 with 20 kcpm RNA (~0.1 pmol/ul), 50 uM GTP, 30 min, room temperature; protein stock in 50 mM Tris-HCl pH 7.5, 100 mM KCl, 0.5 mM …
[2] = molecular target: eEF1A1 (Homo sapiens (HeLa S-100), UniProt P68104 1-462); assay: EMSA; relatively weak; reviewer notes no saturation, >300 nM; RNA EMSA: purified eEF1A1 with 20 kcpm RNA (~0.1 pmol/ul), 50 uM GTP, 30 min, room temperature; protein stock in 50 mM Tris-HCl pH 7.5, 100 mM KCl, 0.5 mM EDTA, 2 mM DTT, 10% glycerol; binding buffer per cited protocols (Yan 2008, Shamovsky 2006); settings: protein: native; tags: none; (radiolabeled); blunt

Molecule	Kd [1] [nM]	binding [1]	binding result [2]
HSP70 3'UTR	100	–	–
GGGGGGCCUUUCCAAGAUUGCUGUUUUUGUUUUGGAGCUUCAAGACUUUGCAUUUCCUAGUAUUUCUGUUUGUCAGUUCUCAAUUUCCUGUGUUUGCAAUGUUGAAAUUUUUUGGUGAAGUACUGAACUUGCUUUUUUUCCGGUUUCUACAUGCAGAGAUGAAUUUAUACUGCCAUCUUACGACUAUUUCUUCUUUUUAAUACACUUAACUCAGGCCAUUUUUUAAGUUGGUUACUUCAAAGUAAAUAAACUUUAAAAUUCAA [HSP70 3'UTR]	100	binds	–
B1	–	–	binds
